The text below walks through data of patent US20040185113A1, “Fine inorganic particles having drug included therein, method for preparation thereof and pharmaceutical preparation comprising fine inorganic particles having drug included therein” (priority 2001, published 2004).

The nature of the data set: G-CSF release test and stability of G-CSF in buffer solution at room temperature. The class given is physicochemical. Particulars: 1% BSA/Tris-HCl (pH 7.2), ELISA, FIG. 4. The procedure:
Six hundred fifty μl of 5M CaCl2 was admixed with 250 μl of 500 μg/ml G-CSF with stirring. Then 2.5 ml of 1M Na2CO3 was added and stirred for 10 minutes to prepare CaCO3 particles. Five ml of H2O was added to the particles, and the mixture was centrifuged at 2,000 rpm for 5 min to remove the supernatant. To the resultant precipitate, 12.5 ml of H2O was added, and 1 ml of the mixture was taken into a 2.0 ml test tube. The test tube and content was centrifuged at 2,000 rpm for 5 min to remove the supernatant which was used for ELISA. To the resultant precipitate, 1 ml of 1% BSA/Tris—HCl (pH 7.2) was added and shaken at room temperature. The mixture was centrifuged every 24 hours at 2,000 rpm for 5 min to collect the supernatant and to the resultant precipitate 1 ml of 1% BSA/Tris—HCl (pH 7.2) was added again, and this operation was continued for 7 days. The last precipitate was dissolved with hydrochloric acid and used for ELISA. G-CSF was assayed using ELISA Kit manufactured by IBL Co. and the total (cumulative) amount of G-CSF released from the G-CSF-encapsulating CaCO3 preparation was shown. […] A part of the mixture was collected every 24 hours, and the amount of G-CSF was determined by ELISA to examine the stability of G-CSF at room temperature.
(In general: ELISA stands for enzyme-linked immunosorbent assay.)

B1: free G-CSF: granulocyte colony-stimulating factor (Chugai Pharmaceutical) in 1% BSA/Tris-HCl solution, control (protein, UniProt P09919 31-207, looked up)
Granulocyte …: TPLGPASSLPQSFLLKCLEQVRKIQGDGAALQEKLVSECATYKLCHPEELVLLGHSLGIPWAPLSSCPSQALQLAGCLSQLHSGLFLYQGLLQALEGISPELGPTLDTLQLDVADFATTIWQQMEELGMAPALQPTQGAMPAFASAFQRRAGGVLVASHLQSFLEVSYRVLRHLAQP
As to B1, the “stability of G-CSF” value is listed as “unstableness”.
